Source: publication PMC11721465

Experiments:
[1] = molecular target: TREM2 (19–134) M41D, biotinylated (human) (UniProt Q9NZC2); assay: BLI; biotinylated TREM2 WT or variant immobilised on SA biosensors; C1q 62.5–1000 nM; PBS with 0.1% BSA and 0.005% Tween-20; 1:1 kinetic fits
[2] = molecular target: TREM2 (19–134) R47H, biotinylated (human) (UniProt Q9NZC2); assay: as above
[3] = molecular target: TREM2 (19–134) WT, biotinylated (human) (UniProt Q9NZC2); assay: as above
[4] = molecular target: TREM2 (19–134) R76D, biotinylated (human) (UniProt Q9NZC2); assay: as above
[5] = molecular target: TREM2 (19–134) T85D, biotinylated (human) (UniProt Q9NZC2); assay: as above
[6] = molecular target: TREM2 (19–134) L71D, biotinylated (human) (UniProt Q9NZC2); assay: as above
[7] = molecular target: TREM2 (19–134) R62H, biotinylated (human) (UniProt Q9NZC2); assay: as above
[8] = molecular target: TREM2 (19–134) F74D, biotinylated (human) (UniProt Q9NZC2); assay: as above
[9] = molecular target: TREM2 (19–134) L75D, biotinylated (human) (UniProt Q9NZC2); assay: as above
[10] = molecular target: TREM2 (19–134) R122D/K123D, biotinylated (human) (UniProt Q9NZC2); assay: as above
[11] = molecular target: TREM2 (19–134) WT, biotinylated (human) (UniProt Q9NZC2); assay: BLI; sequential competition: biotinylated TREM2 WT on SA biosensors dipped into a first ligand or no ligand, then buffer, then a second ligand; binding of the second ligand = response at end minus beginning of Association 2
C1q (Homo sapiens) = C1q (Homo sapiens) (UniProt P02745); conditions: cited from earlier work
[12] = molecular target: TREM2 (19–134) D87N, biotinylated (human) (UniProt Q9NZC2); assay: BLI; biotinylated TREM2 WT or variant immobilised on streptavidin (SA) biosensors; apoE in solution (apoE4 0.012–50 µM); PBS with 0.1% BSA and 0.005% Tween-20; double-reference subtraction; steady-state analysis
Sequence of TREM2 (19–134) D87N, biotinylated (human) (Q9NZC2 19-134 D87N): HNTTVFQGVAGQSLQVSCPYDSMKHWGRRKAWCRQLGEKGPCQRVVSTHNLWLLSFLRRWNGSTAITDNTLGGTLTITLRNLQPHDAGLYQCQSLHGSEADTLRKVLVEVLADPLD

Sequence of TREM2 (19–134) WT, biotinylated (human) (Q9NZC2 19-134): as the sequence (Q9NZC2 19-134 D87N) above, with N69D counted along it
Sequence of TREM2 (19–134) R122D/K123D, biotinylated (human) (Q9NZC2 19-134 R122D/K123D): as the sequence (Q9NZC2 19-134 D87N) above, with N69D, R104D, K105D counted along it
Sequence of TREM2 (19–134) F74D, biotinylated (human) (Q9NZC2 19-134 F74D): as the sequence (Q9NZC2 19-134 D87N) above, with F56D, N69D counted along it
Sequence of TREM2 (19–134) L71D, biotinylated (human) (Q9NZC2 19-134 L71D): as the sequence (Q9NZC2 19-134 D87N) above, with L53D, N69D counted along it
Sequence of TREM2 (Q9NZC2 19-174): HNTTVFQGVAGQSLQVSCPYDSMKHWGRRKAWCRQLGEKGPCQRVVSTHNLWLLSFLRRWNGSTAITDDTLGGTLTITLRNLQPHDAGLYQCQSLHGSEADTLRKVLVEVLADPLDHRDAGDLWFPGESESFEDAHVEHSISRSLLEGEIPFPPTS
Sequence of C1q (Homo sapiens) (P02745 23-245, chain 1 of 3): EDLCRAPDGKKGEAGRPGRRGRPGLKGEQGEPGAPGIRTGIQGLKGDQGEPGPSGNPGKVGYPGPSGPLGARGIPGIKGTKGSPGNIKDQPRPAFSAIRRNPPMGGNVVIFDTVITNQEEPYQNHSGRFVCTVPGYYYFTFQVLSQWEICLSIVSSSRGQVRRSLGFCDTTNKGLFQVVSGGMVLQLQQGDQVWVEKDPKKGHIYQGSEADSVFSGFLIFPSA
Sequence of C1q (Homo sapiens) (P02746 28-253, chain 2 of 3, further chain): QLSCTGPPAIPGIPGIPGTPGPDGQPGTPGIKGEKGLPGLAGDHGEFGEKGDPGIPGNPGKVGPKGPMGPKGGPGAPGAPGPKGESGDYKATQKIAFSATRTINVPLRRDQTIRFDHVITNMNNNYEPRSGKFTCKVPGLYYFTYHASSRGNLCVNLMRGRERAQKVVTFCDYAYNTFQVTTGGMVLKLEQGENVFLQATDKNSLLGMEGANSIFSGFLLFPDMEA
Sequence of C1q (Homo sapiens) (P02747 29-245, chain 3 of 3, further chain): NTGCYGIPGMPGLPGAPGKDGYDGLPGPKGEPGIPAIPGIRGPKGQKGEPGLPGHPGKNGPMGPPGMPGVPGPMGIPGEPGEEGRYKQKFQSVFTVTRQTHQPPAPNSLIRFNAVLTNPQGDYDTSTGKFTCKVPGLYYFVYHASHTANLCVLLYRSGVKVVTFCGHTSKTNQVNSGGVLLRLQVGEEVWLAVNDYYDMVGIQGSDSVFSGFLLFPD
Sequence of TREM2 (19–134) T85D, biotinylated (human) (Q9NZC2 19-134 T85D): as the sequence (Q9NZC2 19-134 D87N) above, with T67D, N69D counted along it
Sequence of TREM2 (19–134) R47H, biotinylated (human) (Q9NZC2 19-134 R47H): as the sequence (Q9NZC2 19-134 D87N) above, with R29H, N69D counted along it
Sequence of TREM2 (19–134) R76D, biotinylated (human) (Q9NZC2 19-134 R76D): as the sequence (Q9NZC2 19-134 D87N) above, with R58D, N69D counted along it
Sequence of TREM2 (19–134) L75D, biotinylated (human) (Q9NZC2 19-134 L75D): as the sequence (Q9NZC2 19-134 D87N) above, with L57D, N69D counted along it
Sequence of TREM2 (19–134) M41D, biotinylated (human) (Q9NZC2 19-134 M41D): as the sequence (Q9NZC2 19-134 D87N) above, with M23D, N69D counted along it
Sequence of TREM2 (19–134) R62H, biotinylated (human) (Q9NZC2 19-134 R62H): as the sequence (Q9NZC2 19-134 D87N) above, with R44H, N69D counted along it

Complement C1q (complex)
Kd [1]: 2540 nM
Kd [2]: 180 nM
Kd [3]: 650 nM
Kd [4]: 13800 nM
Kd [5]: 110 nM
Kd [6]: 58 nM
Kd [7]: 1660 nM
Kd [8]: 110 nM
Kd [9]: 110 nM
Kd [10]: 820 nM
percent decrease of apoE4 (500 nM) binding to TREM2 after pre-binding 1000 nM C1q [11]: 3%
percent inhibition of oAβ42 (500 nM) binding to TREM2 after pre-binding 1000 nM C1q [11]: 22%

TREM2 (from UniProt Q9NZC2)
Kd (C1q (Homo sapiens)): 7.35 nM

apolipoprotein E2 (from UniProt P02649 19-317) (ligand)
Kd [12]: 52 nM

apolipoprotein E4 (from UniProt P02649 19-317) (ligand)
percent reduction of oAβ42 (500 nM) binding to TREM2 after pre-binding 10 µM apoE4 [11]: 67%
